In patent US20260123609A1:

Columns and labels:
[1] = target: mouse CD98HC (NP_001154885.1) (mouse) (UniProt P10852); assay: flow cytometry, spleen B cells (mCD45+ mCD19+) of wild-type C57BL/6 mouse
[2] = target: humanized CD98HC protein (human/mouse chimeric (human amino acids 215-630 of SEQ ID NO: 2 in place of mouse amino acids 147-565 of SEQ ID NO: 1)) (UniProt P08195); assay: flow cytometry, spleen T cells (mCD45+ mTCR β+) of CD98HC humanized homozygous mouse (H/H)
[3] = target: humanized CD98HC protein (human/mouse chimeric (human amino acids 215-630 of SEQ ID NO: 2 in place of mouse amino acids 147-565 of SEQ ID NO: 1)) (UniProt P08195); assay: flow cytometry, spleen B cells (mCD45+ mCD19+) of CD98HC humanized homozygous mouse (H/H)
[4] = target: mouse CD98HC (NP_001154885.1) (mouse) (UniProt P10852); assay: flow cytometry, spleen T cells (mCD45+ mTCR β+) of wild-type C57BL/6 mouse

Chain of UniProt P08195 (P08195 other isoform, or with tags, fused parts or gaps mutant limits assumed): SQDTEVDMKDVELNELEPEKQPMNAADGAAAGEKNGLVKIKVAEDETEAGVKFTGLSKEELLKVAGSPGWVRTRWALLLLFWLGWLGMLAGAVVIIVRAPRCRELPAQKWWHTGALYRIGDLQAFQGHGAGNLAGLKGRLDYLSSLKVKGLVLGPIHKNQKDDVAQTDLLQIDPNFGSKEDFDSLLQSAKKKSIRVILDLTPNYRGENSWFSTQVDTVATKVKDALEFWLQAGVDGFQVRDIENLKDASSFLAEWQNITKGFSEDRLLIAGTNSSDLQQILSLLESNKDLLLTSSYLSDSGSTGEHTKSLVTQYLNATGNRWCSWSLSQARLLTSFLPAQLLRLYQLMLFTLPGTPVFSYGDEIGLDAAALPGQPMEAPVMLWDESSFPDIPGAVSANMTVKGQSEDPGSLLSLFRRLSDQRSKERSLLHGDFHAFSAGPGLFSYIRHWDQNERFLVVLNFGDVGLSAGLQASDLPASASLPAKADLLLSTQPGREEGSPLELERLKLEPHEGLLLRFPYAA
Chain of UniProt P10852 (P10852 other isoform, or with tags, fused parts or gaps): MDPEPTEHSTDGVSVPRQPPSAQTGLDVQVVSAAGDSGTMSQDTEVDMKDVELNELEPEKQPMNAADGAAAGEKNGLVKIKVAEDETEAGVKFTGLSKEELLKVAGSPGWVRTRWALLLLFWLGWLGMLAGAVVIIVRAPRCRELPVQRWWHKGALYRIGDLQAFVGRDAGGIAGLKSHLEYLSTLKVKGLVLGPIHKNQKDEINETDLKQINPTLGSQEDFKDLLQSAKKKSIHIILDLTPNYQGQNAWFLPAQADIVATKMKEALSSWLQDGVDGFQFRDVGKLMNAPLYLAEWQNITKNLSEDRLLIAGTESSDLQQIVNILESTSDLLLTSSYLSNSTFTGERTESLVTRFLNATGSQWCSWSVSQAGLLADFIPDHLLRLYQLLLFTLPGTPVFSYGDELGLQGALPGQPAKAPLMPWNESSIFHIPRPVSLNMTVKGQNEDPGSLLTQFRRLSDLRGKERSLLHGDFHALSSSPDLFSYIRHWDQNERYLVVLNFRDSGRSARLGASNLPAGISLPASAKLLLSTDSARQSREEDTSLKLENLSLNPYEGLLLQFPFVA

| percentage of positive cells [1] [%] | percentage of positive cells [2] [%] | percentage of positive cells [3] [%] | percentage of positive cells [4] [%] | Substance |
| --- | --- | --- | --- | --- |
| 17.2 | 0.27 | 0.3 | 14.7 | APC anti-mouse CD98 (4F2) Antibody (Biolegend, Catalog number: 128211) |
| 0.82 | 27.6 | 27.1 | 0.45 | FITC anti-human CD98 Antibody (Biolegend, Catalog number: 315603) |
